Results on six molecules are retold here after patent publication US20210230599, “STEM-LOOP COMPOSITIONS AND METHODS FOR INHIBITING INTERLEUKIN-8” (VITRISA THERAPEUTICS, INC., published 2021).

The target in series [1] is T1, Interleukin-8 (IL8, CXCL8), C-terminal His-tagged (Homo sapiens, UniProt P10145 SEQ:1-72). Nature of the series: inhibition; inhibition of IL8 binding to CXCR1 cells, protein limited; neutrophil migration 2 nM. The conditions noted are these: tags: C-terminal His (Sino Biological); stem-loop. As to the method:
(§1) CXCR1 overexpressing cells were used to confirm that aptamers could block IL8 binding to its cognate receptor, CXCR1, in a functional setting. Briefly, CXCR1-overexpressing cells were plated in a 96 well plate and seeded overnight. Serially diluted aptamers and 5 nM IL8 were mixed in cell culture media and applied to cells for 2 hours at 37° C. Media was aspirated, and cells were washed 3× with PBS for 5 minutes. Cells were lysed in Ultra HiBlock Buffer (Perkin Elmer) with gentle agitation. IL8 levels were determined using Ultra TR-FRET (Perkin Elmer).

Series [2] has as its target T1, Interleukin-8 (IL8, CXCL8), C-terminal …. Nature of the series: inhibition; inhibition of IL8 binding to CXCR1 cells, 5 nM IL8, protein limited; neutrophil migration 3 nM (Table 35). The following applies: tags: C-terminal His (Sino Biological); stem-loop. As to the method:
as §1

Series [3] has the same target. The experiment in a line: TR-FRET, 1 mM Ca, 1 mM Mg, room temperature. The conditions noted are these: tags: C-terminal 6xHis (Sino Biological); label: Alexa Fluor 647. As to the method: Aptamers were synthesized and labeled with ALEXA FLUOR® 647, and binding to IL8 was quantified by Time-Resolved Fluorescence Resonance Energy Transfer (TR-FRET). Briefly, 2-fold dilutions of thermally equilibrated aptamers were made in TR-FRET Buffer (50 mM MOPS, pH 7.4, 125 mM NaCl, 5 mM KCl, 50 μM CHAPS, 0.1 mg/mL BSA, 1 mM CaCl₂ and 1 mM MgCl₂). […] of aptamer or control solution was added to 10 μL of 15 nM C-His-tagged-IL8 (Sino Biological) in a black wall half-area plate (Corning). In the same plate, 10 μl of aptamer solution was added to 10 μl of TR-FRET buffer alone to use for background subtraction. 10 μl of 15 nM anti-His-Eu (Perkin Elmer) was added to each well, the plate was covered with a plate seal and subsequently incubated in the dark for 1 hour at room temperature. The plate was read on a Biotek CYTATION™ 5 plate reader. Samples were excited at 330 nm and fluorescent values were collected at 665 nm. […] Apparent Kd values obtained for the fits are calculated as the concentration of half-maximal binding and shown in Table 10, and fit curves as FIG. 6. […] It is also possible that differences may arise due to TR-FRET being a homogenous solution binding assay, while bead binding has immobilized ligand and is non-homogenous, so bound aptamers may dissociate during analysis resulting in higher calculated Kd values.
On the technique in general: Time-resolved FRET reads energy transfer from a long-lived donor to a nearby acceptor.

For series [4] the target is unchanged. Nature of the series: competition; competition TR-FRET; affinity within error of unpegylated parent; parent given as Aptamer 38 and as Aptamer 3. The conditions noted are these: tags: C-terminal His (Sino Biological); stem-loop. As to the method:
(§2) To better understand the sequence requirements and to confirm the stem structures of members of the Aptamer 3 family as determined from sequence covariation analysis from both the primary and secondary (degenerate) selections, a series of variants which included mutations and deletions to the predicted stems were synthesized and screened (Table 24). Activity of each of these variants were tested using a time resolved competition TR-FRET assay in which the labeled parent Aptamer 3 was competed with increasing concentrations of unlabeled variants for binding to IL8 (FIG. 14). Briefly, 2-fold dilutions of thermally equilibrated aptamers were made in TR-FRET Buffer (50 mM MOPS, pH 7.4, 125 mM NaCl, 5 mM KCl, 50 μM CHAPS, 0.1 mg/mL BSA, 1 mM CaCl₂, and 1 mM MgCl₂). 5 μL of aptamer or control solution was added to 5 μl mix of 10 nM C-terminal His-tagged-IL8, 60 nM ALEXA FLUOR® 647-labeled Aptamer, and 5 nM anti-His-Eu (Perkin Elmer) in a black wall low volume 384 well plate (Greiner). For control, 5 μl of 1000-fold excess of unlabeled parent aptamer or 5 μl TR-FRET buffer alone was added to the mix of ALEXA FLUOR® 647-labeled aptamer, His-IL8, and anti-His-Eu. The plate was covered with a plate seal and subsequently incubated in the dark for 1 hour at room temperature. The plate was read on a Biotek CYTATION™ 5 plate reader. […]

For series [5] the target is unchanged. The experiment in a line: competition; competition TR-FRET; U13A. The following applies: tags: C-terminal 6xHis (Sino Biological). As to the method: as §2, with “Activity” for “To better understand the sequence requirements and to confirm the stem structures of members of the Aptamer 3 family as determined from sequence covariation analysis from both the primary and secondary (degenerate) selections, a series of variants which included mutations and deletions to the predicted stems were synthesized and screened (Table 24). Activity”
(§3) To better understand the sequence requirements and confirm the stem structures of members of the Aptamer 8 family as determined from sequence covariation analysis from both the primary and secondary (degenerate) selections, a series of variants which included mutations and deletions to the predicted stems (Tables 45 and 46) were synthesized and screened. […]

For series [6] the target is unchanged. Nature of the series: competition; competition TR-FRET; S1 disrupted. The conditions noted are these: tags: C-terminal 6xHis (Sino Biological). As to the method: as §2, with “Activity” for “To better understand the sequence requirements and to confirm the stem structures of members of the Aptamer 3 family as determined from sequence covariation analysis from both the primary and secondary (degenerate) selections, a series of variants which included mutations and deletions to the predicted stems were synthesized and screened (Table 24). Activity”
as §3

GGCGACGGUAGAUUAUGGGCAGUGUGACCGCGCC (ssRNA, 2'-F G; 2'-OMe A,C,U; 5' C6NH2; 3' idT) [Aptamer 147]: the 50% inhibitory concentration (IC50) (as a rule, the point on the concentration scale where inhibition reaches its midpoint) in series [1] was found to be 3 nM. As for UGAUGACGGUAGAUUACGGGUAGAGUGACCGCAUCU (ssRNA, 2'-F G; 2'-OMe A,C,U; 5' C6NH2; 3' idT) [Aptamer 3], the IC50 in series [2] came out at 3 nM. With UGUCGCCCUACGUAAACCGCUAUUUGCGACUGCGGU (ssRNA, 2'-F G, 2'-OMe A/C/U, 5' C6NH2, 3' idT) [Aptamer 19], binding in series [3] was characterised by a dissociation constant (Kd) of 4 nM.

On to GAUGACGGUAGAUUACGGGUAGAGUGACCGCAUC (ssRNA, 2'-F G; 2'-OMe A,C,U; 5' 40 kDa PEG via C6NH2; 3' idT) [Aptamer P01], for which the binding result in series [4] is reported as “binds”. Take CGGUGGGAAAAGUGAGAUGGGUUGCCG (ssRNA, 2'-F G, 2'-OMe A/C/U, 5' C6NH2, 3' idT) [Aptamer 61]: the binding result in series [5] is given as “binds”. For CAAUGGGAAAUGUGAGAUGGGUUGCCG (ssRNA, 2'-F G, 2'-OMe A/C/U, 5' C6NH2, 3' idT) [Aptamer 214], the binding signal in series [6] was > 10 fold worse than Aptamer 8.
